Experimental data published in publication PMC3285605.

How the values were obtained:
[1] = molecular target: soluble form of vesicular stomatitis virus (VSV) glycoprotein G ectodomain (Gth, aa residues 1–422) (vesicular stomatitis virus (Mudd-Summer strain, Indiana serotype)); assay: AUC
[2] = molecular target: soluble form of vesicular stomatitis virus (VSV) glycoprotein G ectodomain (Gth, aa residues 1–422) (vesicular stomatitis virus (Mudd-Summer strain, Indiana serotype)); assay: AUC; sedimentation velocity, pH 6.7, Gth at 0.4 mg/ml, 45,000 rpm, 15°C
[3] = molecular target: soluble form of vesicular stomatitis virus (VSV) glycoprotein G ectodomain (Gth, aa residues 1–422) (vesicular stomatitis virus (Mudd-Summer strain, Indiana serotype)); assay: AUC; sedimentation velocity, pH 6.7, Gth at 1.6 mg/ml, 45,000 rpm, 15°C

soluble form of vesicular stomatitis virus (VSV) glycoprotein G ectodomain (Gth, aa residues 1–422) (domain or fragment)
fraction of the species of about 320 kDa at pH 6.0 [1]: 30%
fraction of the species of about 1,600 kDa at pH 6.0 [1]: 70%
fractional concentration of the 10.0 S species at 0.4 mg/ml, pH 5.7 [1]: 71%
fractional concentration of the 10.0 S species at 1.6 mg/ml, pH 5.7 [1]: 55%
fractional concentration of the 21.0 S species at 0.4 mg/ml, pH 5.7 [1]: 29%
fractional concentration of the 21.0 S species at 1.6 mg/ml, pH 5.7 [1]: 45%
fractional concentration of the 21.0 S species at 0.4 mg/ml, pH 6.7 [2]: 13%
fractional concentration of the 10.0 S species at 1.6 mg/ml, pH 6.7 [3]: 40%
fractional concentration of the 21.0 S species at 1.6 mg/ml, pH 6.7 [3]: 24%
